# T1: PEG-T7-Q
# T1 chain: GGPLGVRGKKC
# B1: MMP11 (protein)
# chain: FVLSGGRWEKTDLTYRILRFPWQLVQEQVRQTMAEALKVWSDVTPLTFTEVHEGRADIMIDFARYWHGDDLPFDGPGGILAHAFFPKTHREGDVHFDYDETWTIGDDQGTDLLQVAAHEFGHVLGLQHTTAAKALMSAFYTFRYPLSLSPDDCRGVQHLYGQPWPTVTSRTPALG
# B2: KLK12 (protein)
# chain: IFNGTECGRNSQPWQVGLFEGTSLRCGGVLIDHRWVLTAAHCSGSRYWVRLGEHSLSQLDWTEQIRHSGFSVTHPGYLGASTSHEHDLRLLRLRLPVRVTSSVQPLPLPNDCATAGTECHVSGWGITNHPRNPFPDLLQCLNLSIVSHATCHGVYPGRITSNMVCAGGVPGQDACQGDSGGPLVCGGVLQGLVSWGSVGPCGQDGIPGVYTYICKYVDWIRMIMRNN
# B3: KLK4 (protein)
# chain: IINGEDCSPHSQPWQAALVMENELFCSGVLVHPQWVLSAAHCFQNSYTIGLGLHSLEADQEPGSQMVEASLSVRHPEYNRPLLANDLMLIKLDESVSESDTIRSISIASQCPTAGNSCLVSGWGLLANGRMPTVLQCVNVSVVSEEVCSKLYDPLYHPSMFCAGGGHDQKDSCNGDSGGPLICNGYLQGLVSFGKAPCGQVGVPGVYTNLCKFTEWIEKTVQAS
# B4: ADAM12 (protein)
# chain: ETLKATKYVELVIVADNREFQRQGKDLEKVKQRLIEIANHVDKFYRPLNIRIVLVGVEVWNDMDKCSVSQDPFTSLHEFLDWRKMKLLPRKSHDNAQLVSGVYFQGTTIGMAPIMSMCTADQSGGIVMDHSDNPLGAAVTLAHELGHNFGMNHDTLDRGCSCQMAVEKGGCIMNASTGYPFPMVFSSCSRKDLETSLEKGMGVCLFNLPEVRESFGGQKCGNRFVEEGEECDCGEPEECMNRCCNATTCTLKPDAVCAHGLCCEDCQLKPAGTACRDSSNSCDLPEFCTGASPHCPANVYLHDGHSCQDVDGYCYNGICQTHEQQCVTLWGPGAKPAPGICFERVNSAGDPYGNCGKVSKSSFAKCEMRDAKCGKIQCQGGASRPVIGTNAVSIETNIPLQQGGRILCRGTHVYLGDDMPDPGLVLAGTKCADGKICLNRQCQNISVFGVHECAMQCHGRGVCNNRKNCHCEAHWAPPFCDKFGFGGSTDSGPIRQADNQG
# B5: KLK14 (protein)
# chain: IIGGHTCTRSSQPWQAALLAGPRRRFLCGGALLSGQWVITAAHCGRPILQVALGKHNLRRWEATQQVLRVVRQVTHPNYNSRTHDNDLMLLQLQQPARIGRAVRPIEVTQACASPGTSCRVSGWGTISSPIARYPASLQCVNINISPDEVCQKAYPRTITPGMVCAGVPQGGKDSCQGDSGGPLVCRGQLQGLVSWGMERCALPGYPGVYTNLCKYRSWIEETMRDK
# B6: PRSS3 (protein)
# chain: IVGGYTCEENSLPYQVSLNSGSHFCGGSLISEQWVVSAAHCYKTRIQVRLGEHNIKVLEGNEQFINAAKIIRHPKYNRDTLDNDIMLIKLSSPAVINARVSTISLPTTPPAAGTECLISGWGNTLSFGADYPDELKCLDAPVLTQAECKASYPGKITNSMFCVGFLEGGKDSCQRDSGGPVVCNGQLQGVVSWGHGCAWKNRPGVYTKVYNYVDWIKDTIAANS
# B7: MMP26 (protein)
# chain: TSISPGRCKWNKHTLTYRIINYPHDMKPSAVKDSIYNAVSIWSNVTPLIFQQVQNGDADIKVSFWQWAHEDGWPFDGPGGILGHAFLPNSGNPGVVHFDKNEHWSASDTGYNLFLVATHEIGHSLGLQHSGNQSSIMYPTYWYHDPRTFQLSADDIQRIQHLYGEKCSSDIP
# What was measured:
# [1] = target: PEG-T53-Q
# [2] = target: PEG-T50-Q
# [3] = target: PEG-T51-Q
# [4] = target: PEG-T40-Q
# [5] = target: PEG-T41-Q
# [6] = target: PEG-T54-Q
# [7] = target: PEG-T49-Q
# [8] = target: PEG-T58-Q
# [9] = target: T1, PEG-T7-Q
protein,measurement,setting,value
B1,Top hit (cleavage of PEG-coupled FRET substrate by recombinant proteases),[1],MMP11
B2,Second hit (cleavage of PEG-coupled FRET substrate by recombinant proteases),[2],KLK12
B3,Top hit (cleavage of PEG-coupled FRET substrate by recombinant proteases),[3],KLK4
same,substrate cleavage,[3],"T40 and T51 are cleaved by MMP26 and KLK4, respectively"
B4,Second hit (cleavage of PEG-coupled FRET substrate by recombinant proteases),[4],ADAM12
same,Top hit (cleavage of PEG-coupled FRET substrate by recombinant proteases); additional note: Poorly cleaved,[5],ADAM12
same,Top hit (cleavage of PEG-coupled FRET substrate by recombinant proteases),[6],ADAM12
B5,Top hit (cleavage of PEG-coupled FRET substrate by recombinant proteases),[7],KLK14
same,Top hit (cleavage of PEG-coupled FRET substrate by recombinant proteases),[2],KLK14
B6,Second hit (cleavage of PEG-coupled FRET substrate by recombinant proteases),[7],PRSS3
same,Second hit (cleavage of PEG-coupled FRET substrate by recombinant proteases),[8],PRSS3
B7,Top hit (cleavage of PEG-coupled FRET substrate by recombinant proteases),[4],MMP26
same,substrate cleavage,[4],"T40 and T51 are cleaved by MMP26 and KLK4, respectively"
same,Second hit (cleavage of PEG-coupled FRET substrate by recombinant proteases),[1],MMP26
same,Second hit (cleavage of PEG-coupled FRET substrate by recombinant proteases),[9],MMP26

# — patent US20190212291
